These results are taken from US20050148763A1, “Peg-binding pth or peg-binding pth derivative” (Chugai Seiyaku Kabushiki Kaisha, priority 2002, published 2005).

Series [1] can be described thus: Pharmacokinetics and bioavailability in rats by subcutaneous route. The series is classed as in vivo. Particulars: subcutaneous, 80 μg/mL at 1 mL/kg. How it is done:
Each sample was adjusted to 80 μg/mL by dilution with 25 mmol/L citrate-phosphate buffer (pH 5.0) containing 100 mmol/L NaCl and 0.05 vol % Tween 20 to give a solution for administration. Male SD rats at 6 weeks of age (CLEA Japan, Inc.) were provided for this experiment. Intravenous injection was performed on rats having polyethylene tubes (SP-31, Natsume Seisakusho Co., Ltd.) inserted into the femoral artery and vein. The solutions thus prepared were each administered at a dose of 1 mL/kg through a polyethylene tube inserted into the femoral vein, and blood was collected through a polyethylene tube inserted into the femoral artery before administration and at 5, 15, 30 and 45 minutes as well as 1, 2, 4, 6, 8 and 24 hours after administration. Subcutaneous administration was performed on rats having polyethylene tubes inserted into the femoral artery. The solutions prepared above were each subcutaneously administered at a dose of 1 mL/kg to the dorsal neck region of the rats, and blood was collected in the same manner as used for intravenous injection. These blood samples were centrifuged to collect plasma and stored at −40° C. until assayed for PTH(1-34) or PEG-PTH(1-34) levels.
The level of PTH(1-34) or PEG-PTH(1-34) was determined by RIA analysis using a Rat PTH IRMA Kit (Immutopics). A Cobra Quantum Model 5005 gamma counter (Packard) was used to measure radioactivity for each sample. The plasma level of PTH(1-34) or PEG-PTH(1-34) was calculated from a calibration curve prepared using PTH(1-34) or PEG-PTH(1-34). The Winnonlin program Ver. 2.1 (Scientific Consulting Inc.) was used to analyze the time course of changes in the calculated plasma PTH(1-34) or PEG-PTH(1-34) levels (FIG. 3: by intravenous route; FIG. 4: by subcutaneous route) to calculate the following as pharmacokinetic parameters: time required to reach the maximum plasma level (Tmax); maximum plasma level (Cmax); area under the curve of plasma levels (AUC); plasma half-life (t1/2); total body clearance (Cltotal); mean residence time in the body (MRT); and bioavailability (BA). […]

In series [2] the target is T1, human PTH1 receptors (Homo sapiens, UniProt Q03431).
T1 construct: expressed in transfected cells; host or cells: HKRK-B7 and HKRK-B64 cells (derived from pig kidney LLC-PK1 cells)
T1 sequence (Q03431 27-593): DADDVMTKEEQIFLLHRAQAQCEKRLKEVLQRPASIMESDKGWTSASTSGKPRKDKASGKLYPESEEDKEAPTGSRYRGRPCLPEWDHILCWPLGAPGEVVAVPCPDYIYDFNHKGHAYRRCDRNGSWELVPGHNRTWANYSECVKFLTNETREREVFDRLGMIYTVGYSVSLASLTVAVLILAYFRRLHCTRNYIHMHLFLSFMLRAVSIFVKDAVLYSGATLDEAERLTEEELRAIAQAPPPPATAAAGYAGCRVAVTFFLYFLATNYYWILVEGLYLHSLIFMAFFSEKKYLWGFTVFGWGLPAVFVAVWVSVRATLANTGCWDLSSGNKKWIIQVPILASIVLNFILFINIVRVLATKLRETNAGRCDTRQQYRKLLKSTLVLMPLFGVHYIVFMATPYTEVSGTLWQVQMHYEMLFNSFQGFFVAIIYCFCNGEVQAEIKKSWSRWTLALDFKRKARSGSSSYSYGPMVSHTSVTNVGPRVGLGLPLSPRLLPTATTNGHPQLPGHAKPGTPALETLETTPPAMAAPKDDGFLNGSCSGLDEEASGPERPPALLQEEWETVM
The experiment in a line: in vitro ability to produce cAMP, HKRK-B7 cells. The series is classed as cell-based. Particulars: Table 2(1), n=2-3. How it is done: (§1) Each PEG-PTH sample was assayed for its ability to produce cAMP (indicative of the increasing effect of PTH on bone mass) as follows. […] These cells were seeded in 96-well plates at 1×10^5 cells/well and incubated overnight. […] After removing the reaction solution, the plates were placed on powdered dry ice to freeze the cells and then removed from the dry ice. The cells were thawed with 50 μL of 50 mM HCl and frozen again on dry ice. The level of intracellular cAMP was determined with a commercially available EIA kit (Biotrak cAMP EIA system, Amersham).

Series [3] deals with T1, human PTH1 receptors. Briefly: in vitro ability to produce cAMP, HKRK-B64 cells. The series is classed as cell-based. Particulars: Table 2(2), n=2-3. The procedure:
Each PEG-PTH sample was assayed for its ability to produce cAMP (indicative of the increasing effect of PTH on bone mass) as follows. HKRK-B7 and HKRK-B64 cells, genetically modified from pig kidney-derived LLC-PK1 cells to overexpress human PTH1 receptors at levels of about 1×10^6 and 9×10^4 receptors per cell, respectively, as well as EW29 cells expressing about 1.9×10^5 rat PTH1 receptors per cell (Takasu et al., J. Bone. Miner. Res. 14: 11-20, 1999) were grown in DMEM supplemented with 10% FBS, 1% penicillin and 1% streptomycin. These cells were seeded in 96-well plates at 1×10^5 cells/well and incubated overnight. On the following day, the cells were washed once with 200 μL binding buffer (50 mM Tris-HCl/100 mM NaCl/5 mM KCl/2 mM CaCl2/5% inactivated horse serum/0.5% inactivated bovine serum, pH 7.7), followed by addition of 100 μL cAMP assay buffer (DMEM/2 mM 3-isobutyl-1-methylxanthine/1 mg/mL bovine serum albumin/35 mM HEPES-NaOH, pH 7.4) on ice. […] After removing the reaction solution, the plates were placed on powdered dry ice to freeze the cells and then removed from the dry ice. The cells were thawed with 50 μL of 50 mM HCl and frozen again on dry ice. The level of intracellular cAMP was determined with a commercially available EIA kit (Biotrak cAMP EIA system, Amersham).

The nature of series [4]: Hypercalcemic effect of PEG-[Cys^35]-PTH(1-35) in normal female DDY mice. Particulars: for Blood iCa level Hour 1: 1 hour after administration; for Blood iCa level Hour 3: 3 hours; for Blood iCa level Hour 6: 6 hours; for Blood iCa level Hour 9: 9 hours; for Blood iCa level Hour 24: 24 hours; for Blood iCa level Hour 0: before administration. It counts as in vivo. The procedure: 2 k, 5 k and 20 k PEG-[Cys^35]-PTH(1-35) were also adjusted similarly to 30, 10 and 2 nmol/mL (calculated as PTH) and allowed to stand on ice immediately before administration.
Using female DDY mice at 6 weeks of age (Japan SLC, Inc.), the corrected level of ionized calcium at pH 7.4 was determined for each sample in the same manner as shown in (1) above. The mice received subcutaneous administration of each drug at a dose of 5 mL/kg. The buffer was administered to a group of 5 mice. […] 150 nmol/kg 2 k, 5 k and 20 k PEG-[Cys^35]-PTH(1-35) were administered to groups of 4 mice each. 50 and 10 nmol/kg 2 k, 5 k and 20 k PEG-[Cys^35]-PTH(1-35) were administered to groups of 5 mice each. At 1, 3, 6, 9 and 24 hours after administration, blood was collected by orbital puncture to monitor the time course of corrected blood ionized calcium levels.

The target of the next series is T2, rat PTH1 receptors (Rattus norvegicus, UniProt P25961).
T2 construct: expressed in transfected cells; host or cells: EW29 cells
T2 sequence (P25961 27-591): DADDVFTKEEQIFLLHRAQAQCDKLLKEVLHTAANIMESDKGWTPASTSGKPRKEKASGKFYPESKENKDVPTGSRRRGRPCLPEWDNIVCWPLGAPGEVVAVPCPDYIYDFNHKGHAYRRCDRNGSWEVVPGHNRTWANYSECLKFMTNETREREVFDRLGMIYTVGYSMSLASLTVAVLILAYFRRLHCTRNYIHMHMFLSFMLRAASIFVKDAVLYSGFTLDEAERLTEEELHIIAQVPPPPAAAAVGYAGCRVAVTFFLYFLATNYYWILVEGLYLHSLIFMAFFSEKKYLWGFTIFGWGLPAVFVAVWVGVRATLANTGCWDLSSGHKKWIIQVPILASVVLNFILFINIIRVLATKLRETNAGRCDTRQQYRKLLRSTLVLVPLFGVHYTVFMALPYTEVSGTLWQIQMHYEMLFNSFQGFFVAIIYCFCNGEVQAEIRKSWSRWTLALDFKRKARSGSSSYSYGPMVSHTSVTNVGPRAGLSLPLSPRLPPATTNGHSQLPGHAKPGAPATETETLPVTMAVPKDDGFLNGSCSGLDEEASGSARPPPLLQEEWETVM
The experiment in a line: in vitro ability to produce cAMP, EW29 cells. Conditions: Table 2(3), n=2-3. It counts as cell-based. The procedure:
as §1

One may read the AUC as concentration integrated over time. By MRT is commonly meant the average time that molecules of a dose stay in the body. What is called Tmax is the time at which the peak concentration occurs. The EC50 is the midpoint of the concentration-response curve.

In the case of “20k PEG-hPTH(1-34): hPTH(1-34) reacted with mPEG 20 k-SPA, fraction having one 20 kDa PEG molecule per PTH molecule”, in series [1], the AUC was 2693.945 ng·h/mL, the MRT turned out to be 18.93 h, the Tmax was 7.000 h and the “t ½” value amounted to 11.346 h.
In the case of “5 k PEG-[Cys^35]-hPTH(1-35): [Cys^35]-hPTH(1-35) conjugated with 5 kDa PEG (SVSEIQLMHNLGKHLNSMERVEWLRKKLQDVHNFC; Parathyroid hormone 5 kDa PEG at Cys35; UniProt P01270 32-66, looked up, variant V35C)”, in the series with human PTH1 receptors [2], the “Maximum cAMP response” value is recorded as 122.7 ± 11.5 pmol/well. The same substance yielded an EC50 with human PTH1 receptors [2] (cAMP production) of 0.9 nM. For the same substance, in the series with human PTH1 receptors [3], the “Maximum cAMP response” value was 66.6 ± 17.4 pmol/well. The substance further yielded an EC50 with human PTH1 receptors [3] (cAMP production) of 1 nM. Besides, in series [4] (10 nmol/kg sc), the “Blood iCa level Hour 1” value is listed as 1.44 ± 0.02 mM, the “Blood iCa level Hour 3” value is listed as 1.50 ± 0.02 mM, the “Blood iCa level Hour 6” value was 1.43 ± 0.02 mM and the “Blood iCa level Hour 9” value was 1.28 ± 0.04 mM. In series [4] (10 nmol/kg sc), the “Blood iCa level Hour 24” value is 1.36 ± 0.03 mM and the “Blood iCa level Hour 0” value was 1.30 ± 0.04 mM. In series [4] (50 nmol/kg sc), the “Blood iCa level Hour 1” value is 1.43 ± 0.03 mM, the “Blood iCa level Hour 3” value is on record as 1.49 ± 0.04 mM, the “Blood iCa level Hour 6” value is 1.48 ± 0.03 mM and the “Blood iCa level Hour 9” value was 1.35 ± 0.06 mM. Moreover, in series [4] (50 nmol/kg sc), the “Blood iCa level Hour 24” value is given as 1.36 ± 0.04 mM and the “Blood iCa level Hour 0” value is reported as 1.31 ± 0.03 mM. Moreover, in series [4] (150 nmol/kg sc), the “Blood iCa level Hour 1” value is 1.43 ± 0.04 mM, the “Blood iCa level Hour 3” value is 1.49 ± 0.03 mM, the “Blood iCa level Hour 6” value is 1.52 ± 0.05 mM and the “Blood iCa level Hour 9” value was 1.35 ± 0.02 mM. For the same substance, in series [4] (150 nmol/kg sc), the “Blood iCa level Hour 24” value is on record as 1.40 ± 0.05 mM and the “Blood iCa level Hour 0” value was 1.30 ± 0.03 mM. Besides, in series [4] (female DDY mice, sc), the “increased blood ionized calcium level maintained until” value is 6 h and the “time of maximum increase in blood ionized calcium levels after administration” value was 3 h. Further, the “Maximum cAMP response” value in the series with rat PTH1 receptors is reported as 52.5 ± 14.1 pmol/well. The substance also yielded an EC50 in the series with rat PTH1 receptors (cAMP production) of 3.5 nM.
